This test concerns the target T1, NAA10 A6P-V5 (human, UniProt P41227-1 1-235, A6P).
T1 construct: NAA10, human, patient variant c.16G>C p.(A6P), made by site-directed mutagenesis of pcDNA3.1/NAA10-WT-V5; Same construct as m1 with the variant found in a patient; also called NAA10 p.(A6P); c.16G>C p.(Ala6Pro); source: HeLa, transfected, in lysate
T1 sequence (looked up): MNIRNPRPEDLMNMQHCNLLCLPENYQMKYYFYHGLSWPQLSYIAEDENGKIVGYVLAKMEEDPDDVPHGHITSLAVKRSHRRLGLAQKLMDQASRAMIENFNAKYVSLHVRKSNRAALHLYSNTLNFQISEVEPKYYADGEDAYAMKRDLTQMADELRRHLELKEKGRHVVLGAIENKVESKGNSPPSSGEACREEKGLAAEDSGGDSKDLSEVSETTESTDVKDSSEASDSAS
Nature of the test: co-IP; anti-V5 immunoprecipitation (Dynabeads Protein G) of NAA10-V5 from lysates of transfected HeLa cells; lysis buffer 50 mM Tris-HCl pH 8.0, 150 mM NaCl, 5 mM EDTA, 0.5% NP-40, 4 °C; co-precipitated NAA15 detected by Western blot. The conditions noted are these: partners not purified.

B1: NAA15 (natural protein, human (endogenous in HeLa), UniProt Q9BXJ9 1-866, looked up)
chain: MPAVSLPPKENALFKRILRCYEHKQYRNGLKFCKQILSNPKFAEHGETLAMKGLTLNCLGKKEEAYELVRRGLRNDLKSHVCWHVYGLLQRSDKKYDEAIKCYRNALKWDKDNLQILRDLSLLQIQMRDLEGYRETRYQLLQLRPAQRASWIGYAIAYHLLEDYEMAAKILEEFRKTQQTSPDKVDYEYSELLLYQNQVLREAGLYREALEHLCTYEKQICDKLAVEETKGELLLQLCRLEDAADVYRGLQERNPENWAYYKGLEKALKPANMLERLKIYEEAWTKYPRGLVPRRLPLNFLSGEKFKECLDKFLRMNFSKGCPPVFNTLRSLYKDKEKVAIIEELVVGYETSLKSCRLFNPNDDGKEEPPTTLLWVQYYLAQHYDKIGQPSIALEYINTAIESTPTLIELFLVKAKIYKHAGNIKEAARWMDEAQALDTADRFINSKCAKYMLKANLIKEAEEMCSKFTREGTSAVENLNEMQCMWFQTECAQAYKAMNKFGEALKKCHEIERHFIEITDDQFDFHTYCMRKITLRSYVDLLKLEDVLRQHPFYFKAARIAIEIYLKLHDNPLTDENKEHEADTANMSDKELKKLRNKQRRAQKKAQIEEEKKNAEKEKQQRNQKKKKDDDDEEIGGPKEELIPEKLAKVETPLEEAIKFLTPLKNLVKNKIETHLFAFEIYFRKEKFLLMLQSVKRAFAIDSSHPWLHECMIRLFNTAVCESKDLSDTVRTVLKQEMNRLFGATNPKNFNETFLKRNSDSLPHRLSAAKMVYYLDPSSQKRAIELATTLDESLTNRNLQTCMEVLEALYDGSLGDCKEAAEIYRANCHKLFPYALAFMPPGYEEDMKITVNGDSSAEAEELANEI
notes: NAA15, large auxiliary subunit of the NatA complex, endogenous in HeLa cells, detected with NAA15 rabbit polyclonal antibody (previously called anti-NATH); also called auxiliary subunit of NatA; NATH; source: endogenous, HeLa lysate
Consider B1, for which the “fold less NAA15 co-immunoprecipitated than with NAA10 WT-V5” value was determined as 5 fold.
